According to article PMC3558487:

Assays:
[1] = molecular target: Vibrio harveyi chitoporin (VhChiP), recombinant, mature trimer (Vibrio harveyi type strain 650); assay: SDS-PAGE of samples unheated or heated at up to 60°C; purified VhChiP (peak P2 of the ion exchange) unheated or heat-treated for 10 min, run on a 10% polyacrylamide gel; trimer to monomers
[2] = molecular target: Vibrio harveyi chitoporin (VhChiP), recombinant, mature trimer (Vibrio harveyi type strain 650); assay: single-channel current recording in a planar lipid bilayer (BLM); purified VhChiP added to the cis side of a DPhPC bilayer, 1 M KCl, 20 mM HEPES pH 7.5; closure induced by higher voltage (+200 mV)

- stoichiometry N [1]: 3
- stoichiometry N [2]: 3
Substance: Vibrio harveyi chitoporin (VhChiP), recombinant, mature trimer (natural protein)
